Consider two molecules from article PMC3230378 (The EMBO Journal, 2011).

As a reminder, the Kd is the free concentration of one partner at which half of the binding sites on the other are occupied at equilibrium, for simple one-to-one binding. A high value points to lower affinity.

Holding throughout (assay): SPR
In general terms: In SPR one partner is held on a chip, and binding of the other changes the refractive index at the surface.

Experiment [1] deals with NGL1-r1 mutant (human NGL1_(LRR–Ig) with the loop I binding region of NGL2) (human) (UniProt Q9HCJ2).
Experiment [2] deals with mouse NGL3_(LRR–Ig) (mouse) (UniProt P0C192).
In another experiment the target is T1, mouse NGL3_(LRR–Ig) (mouse, UniProt P0C192 39-455).
T1 sequence (looked up): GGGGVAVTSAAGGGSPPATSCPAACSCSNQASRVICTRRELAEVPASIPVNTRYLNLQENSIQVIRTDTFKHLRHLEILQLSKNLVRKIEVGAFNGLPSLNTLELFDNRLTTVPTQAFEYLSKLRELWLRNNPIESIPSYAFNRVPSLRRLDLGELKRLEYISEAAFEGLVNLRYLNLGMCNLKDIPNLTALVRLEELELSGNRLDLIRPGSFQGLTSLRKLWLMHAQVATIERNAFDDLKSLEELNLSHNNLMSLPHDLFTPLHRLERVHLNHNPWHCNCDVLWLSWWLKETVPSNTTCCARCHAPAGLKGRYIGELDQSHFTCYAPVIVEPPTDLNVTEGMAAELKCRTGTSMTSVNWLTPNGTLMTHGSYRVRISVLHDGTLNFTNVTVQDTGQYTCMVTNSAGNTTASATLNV

In experiment [1], “human NetrinG1_(Lam–EGF1/4), wild type (domain or fragment)” registered a fold decrease of binding against WT NGL1 above 10 fold. Besides, the Kd in experiment [2] is above 100 µM.

B1: human NetrinG2_(Lam–EGF1), wild type (domain or fragment, UniProt Q96CW9 18-345, looked up)
chain: DYDICKSWVTTDEGPTWEFYACQPKVMRLKDYVKVKVEPSGITCGDPPERFCSHENPYLCSNECDASNPDLAHPPRLMFDKEEEGLATYWQSITWSRYPSPLEANITLSWNKTVELTDDVVMTFEYGRPTVMVLEKSLDNGRTWQPYQFYAEDCMEAFGMSARRARDMSSSSAHRVLCTEEYSRWAGSKKEKHVRFEVRDRFAIFAGPDLRNMDNLYTRLESAKGLKEFFTLTDLRMRLLRPALGGTYVQRENLYKYFYAISNIEVIGRCKCNLHANLCSMREGSLQCECEHNTTGPDCGKCKKNFRTRSWRAGSYLPLPHGSPNACA
Turning to B1, the Kd in the experiment with mouse NGL3_(LRR–Ig) is above 100 µM.
